B1: BSI-502-001 (bispecific antibody, human IgG1, kappa)
heavy: EVQLVESGGGLVQPGGSLRLSCAASGFTFSTYGMSWVRQAPGKGLVWVATINSNGGSTSYPDSVKGRFTISRDNAKNTLYLQMNSLRAEDTAVYYCARFFRFRNAMDYWGQGTLVTVSSASTKGPSVFPLAPSSKSTSGGTAALGCLVKDYFPEPVTVSWNSGALTSGVHTFPAVLQSSGLYSLSSVVTVPSSSLGTQTYICNVNHKPSNTKVDKKVEPKSCDKTHTCPPCPAPEAQGGPSVFLFPPKPKDTLYITREPEVTCVVVDVSHEDPEVKFNWYVDGVEVHNAKTKPREEQYNSTYRVVSVLTVLHQDWLNGKEYKCQVSNKALPAPIEKTISKAKGQPREPQVYTLPPSRDELTKNQVSLTCLVKGFYPSDIAVEWESNGQPENNYKTTPPVLDSDGSFFLYSKLTVDKSRWQQGNVFSCSVMHEALHNHYTQKSLSLSPGKGGGGSGGGGSQVQLVQSGAEVKKPGASVKVSCKASGYTFTTYWMHWVRQAPGQGLEWMGVIDPSDSDTTYNQKFKGRVTMTRDTSTSTVYMELSSLRSEDTAVYYCTRSLDGYYDYWGQGTLVTVSSGGGGSGGGGSGGGGSGGGGSDIQMTQSPSSLSASVGDRVTITCRPTENIYSYLAWYQQKPGKAPKLLIYFARTLAEGVPSRFSGSGSGTDFTLTISSLQPEDFATYYCQHHYGTPWTFGGGTKVEIK
light: DIQMTQSPSSLSASVGDRVTITCRTSENIYSYLAWYQQKPGKAPKFLVYNAKTLAEGVPSRFSGSGSGTDFTLTISSLQPEDFATYYCQHYYGPPTWTFGQGTKVEIKRTVAAPSVFIFPPSDEQLKSGTASVVCLLNNFYPREAKVQWKVDNALQSGNSQESVTEQDSKDSTYSLSSTLTLSKADYEKHKVYACEVTHQGLSSPVTKSFNRGEC
notes: huC2C1A1A1-V15 IgG with an anti-TSLP scFv (hu1C5F12E9-V8, VH-VL) at the C-terminus of the heavy chain
B2: BSI-502-002 (bispecific antibody, human IgG1, kappa)
heavy: EVQLVESGGGLVQPGGSLRLSCAASGFTFSTYGMSWVRQAPGKGLVWVATINSNGGSTSYPDSVKGRFTISRDNAKNTLYLQMNSLRAEDTAVYYCARFFRFRNAMDYWGQGTLVTVSSASTKGPSVFPLAPSSKSTSGGTAALGCLVKDYFPEPVTVSWNSGALTSGVHTFPAVLQSSGLYSLSSVVTVPSSSLGTQTYICNVNHKPSNTKVDKKVEPKSCDKTHTCPPCPAPEAQGGPSVFLFPPKPKDTLYITREPEVTCVVVDVSHEDPEVKFNWYVDGVEVHNAKTKPREEQYNSTYRVVSVLTVLHQDWLNGKEYKCQVSNKALPAPIEKTISKAKGQPREPQVYTLPPSRDELTKNQVSLTCLVKGFYPSDIAVEWESNGQPENNYKTTPPVLDSDGSFFLYSKLTVDKSRWQQGNVFSCSVMHEALHNHYTQKSLSLSPGKGGGGSGGGGSDIQMTQSPSSLSASVGDRVTITCRPTENIYSYLAWYQQKPGKAPKLLIYFARTLAEGVPSRFSGSGSGTDFTLTISSLQPEDFATYYCQHHYGTPWTFGGGTKVEIKGGGGSGGGGSGGGGSGGGGSQVQLVQSGAEVKKPGASVKVSCKASGYTFTTYWMHWVRQAPGQGLEWMGVIDPSDSDTTYNQKFKGRVTMTRDTSTSTVYMELSSLRSEDTAVYYCTRSLDGYYDYWGQGTLVTVSS
light: B1 light
notes: huC2C1A1A1-V15 IgG with an anti-TSLP scFv (VL-VH) at the C-terminus of the heavy chain; AQQ and YTE already stand in the entry
B3: BSI-502-003 (bispecific antibody, human IgG1, kappa)
heavy: EVQLVESGGGLVQPGGSLRLSCAASGFTFSTYGMSWVRQAPGKGLVWVATINSNGGSTSYPDSVKGRFTISRDNAKNTLYLQMNSLRAEDTAVYYCARFFRFRNAMDYWGQGTLVTVSSGGGGSGGGGSGGGGSGGGGSDIQMTQSPSSLSASVGDRVTITCRTSENIYSYLAWYQQKPGKAPKFLVYNAKTLAEGVPSRFSGSGSGTDFTLTISSLQPEDFATYYCQHYYGPPTWTFGQGTKVEIKGGGGSGGGGSQVQLVQSGAEVKKPGASVKVSCKASGYTFTTYWMHWVRQAPGQGLEWMGVIDPSDSDTTYNQKFKGRVTMTRDTSTSTVYMELSSLRSEDTAVYYCTRSLDGYYDYWGQGTLVTVSSASTKGPSVFPLAPSSKSTSGGTAALGCLVKDYFPEPVTVSWNSGALTSGVHTFPAVLQSSGLYSLSSVVTVPSSSLGTQTYICNVNHKPSNTKVDKKVEPKSCDKTHTCPPCPAPEAQGGPSVFLFPPKPKDTLYITREPEVTCVVVDVSHEDPEVKFNWYVDGVEVHNAKTKPREEQYNSTYRVVSVLTVLHQDWLNGKEYKCQVSNKALPAPIEKTISKAKGQPREPQVYTLPPSRDELTKNQVSLTCLVKGFYPSDIAVEWESNGQPENNYKTTPPVLDSDGSFFLYSKLTVDKSRWQQGNVFSCSVMHEALHNHYTQKSLSLSPG
light: DIQMTQSPSSLSASVGDRVTITCRPTENIYSYLAWYQQKPGKAPKLLIYFARTLAEGVPSRFSGSGSGTDFTLTISSLQPEDFATYYCQHHYGTPWTFGGGTKVEIKRTVAAPSVFIFPPSDEQLKSGTASVVCLLNNFYPREAKVQWKVDNALQSGNSQESVTEQDSKDSTYSLSSTLTLSKADYEKHKVYACEVTHQGLSSPVTKSFNRGEC
notes: hu1C5F12E9-V8 IgG with an anti-IL4R scFv (huC2C1A1A1-V15, VH-VL) at the N-terminus of the heavy chain; AQQ and YTE already stand in the entry
B4: BSI-502-004 (bispecific antibody, human IgG1, kappa)
heavy: DIQMTQSPSSLSASVGDRVTITCRTSENIYSYLAWYQQKPGKAPKFLVYNAKTLAEGVPSRFSGSGSGTDFTLTISSLQPEDFATYYCQHYYGPPTWTFGQGTKVEIKGGGGSGGGGSGGGGSGGGGSEVQLVESGGGLVQPGGSLRLSCAASGFTFSTYGMSWVRQAPGKGLVWVATINSNGGSTSYPDSVKGRFTISRDNAKNTLYLQMNSLRAEDTAVYYCARFFRFRNAMDYWGQGTLVTVSSGGGGSGGGGSQVQLVQSGAEVKKPGASVKVSCKASGYTFTTYWMHWVRQAPGQGLEWMGVIDPSDSDTTYNQKFKGRVTMTRDTSTSTVYMELSSLRSEDTAVYYCTRSLDGYYDYWGQGTLVTVSSASTKGPSVFPLAPSSKSTSGGTAALGCLVKDYFPEPVTVSWNSGALTSGVHTFPAVLQSSGLYSLSSVVTVPSSSLGTQTYICNVNHKPSNTKVDKKVEPKSCDKTHTCPPCPAPEAQGGPSVFLFPPKPKDTLYITREPEVTCVVVDVSHEDPEVKFNWYVDGVEVHNAKTKPREEQYNSTYRVVSVLTVLHQDWLNGKEYKCQVSNKALPAPIEKTISKAKGQPREPQVYTLPPSRDELTKNQVSLTCLVKGFYPSDIAVEWESNGQPENNYKTTPPVLDSDGSFFLYSKLTVDKSRWQQGNVFSCSVMHEALHNHYTQKSLSLSPG
light: B3 light
notes: hu1C5F12E9-V8 IgG with an anti-IL4R scFv (VL-VH) at the N-terminus of the heavy chain; AQQ and YTE already stand in the entry

The term EC50 denotes the concentration giving half of the maximal effect. For orientation: IC50 means the point on the concentration scale where inhibition reaches its midpoint.

One assay addresses T1, human IL4Rα expressed on 293F-IL4Rα cell surface (human, UniProt P24394 26-825).
T1 construct: whole, on cells; also called human IL4Rα-expressing cells; cell surface IL4R
The assay is described as follows: flow cytometry on 293F-IL4Rα cells, PE anti-human IgG Fc. The method, then:
Cells were washed twice with FACS buffer, and added with 100 μL/well R-Phycoerythrin AffiniPure Goat Anti-Human IgG, Fey fragment specific (1:1000 dilution in FACS buffer, Jackson Immunoresearch, Cat #109-115-098). Following an incubation of 40 minutes at 4° C. in dark, cells were washed three times and resuspended in FACS buffer. Fluorescence was measured using a Becton Dickinson FACS Canto II-HTS equipment. Data was analyzed using Graphpad Prism and EC₅₀ values were reported.
For orientation: Flow cytometry measures light scatter and fluorescence of single cells or particles in a stream.
Molecule B1 yielded a concentration giving a half-maximal response (EC50) of 0.18 nM.

Molecule B2 had a concentration giving a half-maximal response (EC50) of 0.173 nM.

The molecule B3 had a half-maximal effective concentration (EC50) of 0.203 nM.

The molecule B4 registered an EC50 of 0.169 nM.

The target in a further assay is T1, human IL4Rα expressed on 293F-IL4Rα …. The assay is described as follows: cell-based blocking FACS on 293F-IL4Rα cells; blocked ligand biotin human IL4. The method, then: Then, 1×10⁵ cells per well were incubated in 96 well-plates in 100 μL of serially diluted bispecific antibodies, the positive controls or negative control (starting at 100 nM with a 5-fold serial dilution) in FACS buffer for 40 minutes on ice. […] The plates were washed twice with FACS buffer, and then added and incubated for 40 minutes at 4° C. in dark with 100 μL/well R-Phycoerythrin Streptavidin (1:500 dilution in FACS buffer, Jackson Immunoresearch, Cat #016-110-084). Cells were washed twice and resuspended in FACS buffer. Fluorescence was measured using a Becton Dickinson FACS Canto II-HTS equipment. Data was analyzed using Graphpad Prism and IC₅₀ values were reported.
As to B1, the midpoint of inhibition, the IC50, lay at 0.137 nM.

The molecule B2 returned an IC50 of 0.144 nM.

B3 came in with an IC50 of 0.204 nM.

For the molecule B4, the 50% inhibitory concentration (IC50) was found to be 0.168 nM.

In a further assay the target is T2, recombinant human IL4Rα-his (human, UniProt P24394 26-231, limits assumed, biotin-labeled in the capture ELISA).
T2 construct: In-house made; not shown: His tag at the C-terminus
The assay is described as follows: capture ELISA: antibody captured on anti-human IgG Fc F(ab')2, biotin human IL4Rα-his, SA-HRP. As for the experimental part:
Briefly, 96-well plates were coated with 2 μg/mL AffiniPure F(ab′)₂ Fragment Goat Anti-Human IgG, Fey fragment specific (Jackson Immuno Research, Cat #109-006-008) in PBS, 100 μL/well, overnight at 4° C. Plates were washed once with wash buffer (PBS+0.05% w/v Tween-20, PBST) and then blocked with 200 μL/well blocking buffer (5% w/v non-fatty milk in PBST) for 2 hours at 37° C. […] After a final wash, plates were incubated with 100 μL/well ELISA substrate TMB (Innoreagents, Cat #TMB-S-002). The reaction was stopped in 10 minutes at 25° C. with 50 μL/well 1M H₂SO₄, and the absorbance was read on a microplate reader using dual wavelength mode with 450 nm for TMB and 630 nm as the reference wavelength. Data was analyzed using Graphpad Prism and EC₅₀ values were reported.
A general note: An ELISA detects its analyte on a solid surface through an enzyme-linked reagent.
For the molecule B1, the EC50 is 0.0218 nM.

Turning to B3, the half-maximal effective concentration (EC50) stood at 0.0416 nM.

As for B4, the EC50 came to 0.0346 nM.

The target of another assay is T2, recombinant human IL4Rα-his. The assay is described as follows: competitive ELISA: coated human IL4Rα-his, antibody titrated; blocked ligand biotin human IL4. The method, then:
Briefly, 100 μL human IL4Rα-his proteins (prepared in-house, IL4Rα of SEQ ID NO: 33 with C-terminal His tag) were coated on 96-well micro plates at 2 μg/mL in PBS overnight at 4° C. The next day, plates were washed with wash buffer (PBS+0.05% w/v Tween-20, PBST), and blocked with 5% w/v non-fatty milk in PBST for 2 hours at 37° C. Plates were then washed again using wash buffer. Serially diluted bispecific antibodies or the controls (starting at 100 nM with a 5-fold serial dilution) in 2.5% w/v non-fatty milk in PBST, 100 μL per well, were added to the IL4Rα bound plates, and incubated at 37° C. for 40 minutes. […] Plates were washed again using wash buffer. Thereafter, the plates were added with 100 μL/well of streptavidin conjugated HRP (1:10000 dilution in PBST buffer, Jackson Immunoresearch, Cat #016-030-084) and incubated for 40 minutes at 37° C. Plates were washed again using wash buffer. Finally, TMB was added and the reaction was stopped using 1M H₂SO₄, and the absorbance was read at 450 nm. Data was analyzed using Graphpad Prism and IC₅₀ values were reported.
As to B1, the IC50 was determined as 0.248 nM.

Consider B2, for which the concentration for half-maximal inhibition (IC50) came out at 0.299 nM.

Consider B3, for which the IC50 was found to be 0.229 nM.

The next assay concerns the target T3, biotin-labeled human TSLP-Fc (human, biotin-labeled).
T3 construct: also called TSLP-Fc protein; TSLP-Fc-biotin
The assay is described as follows: cell-based blocking FACS: antibody pre-mixed with biotin human TSLP-Fc; blocked binding to cell-surface TSLPR/IL7Ra on HEK293T-TSLPR/IL7R/STAT5-Luc 5C5 cells. The method, then: The cells were prepared following the instruction of lipofectamine 3000 transfection reagent (Thermo Fisher), by transfecting HEK293T cells (ATCC® CRL-11268) with pCMV-T-P plasmids inserted with TSLPR coding sequence between EcoRI and Xba1 sites and pCMV3-SP plasmids inserted with IL7Ra coding sequence between HindIII and Xba1 sites as well as pGL4.52 [luc2P/STAT5RE/Hygro](Promega).
The cells were harvested from cell culture flasks, washed twice and re-suspended in phosphate buffered saline (PBS) containing 2% v/v Fetal Bovine Serum (FACS buffer). […] Cells were washed twice with FACS buffer, and then added and incubated with 100 μL/well R-Phycoerythrin Streptavidin (1:500 dilution in FACS buffer, Jackson Immunoresearch, Cat #016-110-084) for 40 minutes at 4° C. in dark. Cells were washed twice and re-suspended in FACS buffer. Fluorescence was measured using a Becton Dickinson FACS Canto II-HTS equipment. Data was analyzed using Graphpad Prism and IC₅₀ values were reported.
Molecule B1 had an IC50 of 1.73 nM.

B2: the IC50 was 4.23 nM.

In turn, B3 registered a half-maximal inhibitory concentration (IC50) of 1.47 nM.

As for B4, the half-inhibitory concentration (IC50) was determined as 1.31 nM.
